Measured values from US20200347144A1 (SHANGHAI HYAMAB BIOTECH, published 2020).

Tests used:
[1] = target: T1, human 4-1BB, full length, on transfected cells (human, UniProt Q07011 24-255); experiment: FACS, CHOK1-h4-1BB cells; Ab 0.00013 ug/ml
T1 construct: whole, on cells; also called CHOK1-h4-1BB
Excerpt: (§1) The pIRES plasmid carrying the full-length gene of monkey-derived […] (the preparation method is the same as the preparation method of the pCpC vector carrying the human-derived IgG Fc fragment (hFc) in “Preparation of immunogen A” of the step (1) in Example 1, in which the database accession number of the amino acid sequence of the extracellular region of monkey 4-1BB protein (Phe19-Thr239) is G7PSE7) was transfected into CHOK1 cell line to obtain CHOK1 stable transfected cell line containing monkey 4-1BB (herein referred to as CHOK1-c4-1BB stable cell line). The CHOK1-h4-1BB stable cell line and the CHOK1-c4-1BB stable cell line were expanded and cultivated to 90% confluence in T-75 cell culture flasks. The medium was exhausted, and washed twice with HBSS buffer (Hanks Balanced Salt Solution, purchased from Invitrogen), and then the cells were treated and collected with enzyme-free cell dissociation solution (Versene solution, purchased from Life Technology). The cells were washed twice with HBSS buffer, and after cell counting, the cells were diluted with HBSS buffer to 2×10⁶ cells per ml, and 1% goat serum blocking solution was added, the percentage being the mass percentage. It was incubated on ice for 30 minutes, and then washed twice with HBSS buffer by centrifugation. The collected cells were suspended in FACS buffer (HBSS containing 1% BSA, the percentage was the mass percentage) to 2×10⁶ cells/mL, and 100 μl per well was added to a 96-well FACS reaction plate. The purified 4-1BB antibody test sample obtained in Example 2 was added, 100 microliters per well and incubated on ice for 2 hours. […] It was washed three times with FACS buffer by centrifugation, and 100 μl of fixative [4% (v/v) paraformaldehyde] per well was added to suspend cells, and washed twice with FACS buffer after 10 minutes by centrifugation. The cells were suspended with 100 microliters of FACS buffer, and the results were detected and analyzed with FACS (FACS Calibur, purchased from BD).

[2] = target: T1, human 4-1BB, full length, on …; experiment: FACS, CHOK1-h4-1BB cells; Ab 0.4 ug/ml
Excerpt: as §1

[3] = target: T2, hFc-tagged human 4-1BB extracellular domain protein (4-1BB-hFc) (human, UniProt Q07011 24-186, limits assumed); experiment: ELISA, coated human 4-1BB-hFc; Ab 2 ug/ml
T2 construct: also called immunogen A; 4-1BB^ECD-hFc; not shown: human IgG Fc fragment (hFc) of the pCpC vector
Procedure: (§2) The purified immunogen A (4-1BB-hFc), monkey 4-1BB-his, and mouse 4-1BB-his obtained in Example 1 [for the preparation method, see step 1 of Example 1, preparation of immunogen A], of which the extracellular domain of monkey-derived 4-1BB protein (purchased from ACRO biosystems), the extracellular domain of mouse 4-1BB protein (purchased from sino biological) or other immune detection point proteins respectively were diluted with PBS to a final concentration of 1.0 μg/mL, then added with […] per well to 96-well ELISA plate. It was sealed with plastic film and incubated at 4° C. overnight. The next day, the plate was washed twice with the plate-washing solution [PBS containing 0.01% (v/v) Tween20] and blocking solution [PBS containing 0.01% (v/v) Tween 20 and 1% (v/v) BSA] was added and blocked at room temperature for 2 hours. The blocking solution was discarded and 100 μl of the purified 4-1BB antibody obtained in Example 2 was added per well. After incubated at 37° C. for 2 hours, the plate was washed 3 times with a plate-washing solution [PBS containing 0.01% (v/v) Tween20]. A secondary antibody (purchased from Sigma) labeled with HRP (horseradish peroxidase) was added, and after incubated at 37° C. for 2 hours, the plate was washed 3 times with a plate-washing solution [PBS containing 0.01% (v/v) Tween20]. 100 μl of TMB substrate was added per well. After incubated for 30 minutes at room temperature, 100 μl of stop buffer (1.0N HCl) was added per well. The A450 nm values were read using an ELISA plate reader (SpectraMax 384plus, Molecular Device).

[4] = target: T3, monkey 4-1BB on CHOK1 cells (monkey); experiment: FACS, CHOK1-c4-1BB cells; Ab 10 ug/ml
T3 construct: whole, on cells; also called CHOK1-c4-1BB
Excerpt: as §1

[5] = target: T2, hFc-tagged human 4-1BB extracellular …; experiment: ELISA, coated human 4-1BB-hFc; Ab 0.4 ug/ml
Procedure: as §2

[6] = target: T2, hFc-tagged human 4-1BB extracellular …; experiment: ELISA, coated human 4-1BB-hFc; Ab 0.0001 ug/ml
Procedure: as §2

[7] = target: T2, hFc-tagged human 4-1BB extracellular …; experiment: ELISA, coated human 4-1BB-hFc; Ab 0.08 ug/ml
Procedure: as §2

[8] = target: T1, human 4-1BB, full length, on …; experiment: FACS, CHOK1-h4-1BB cells; Ab 0.00064 ug/ml
Excerpt: as §1

[9] = target: T1, human 4-1BB, full length, on …; experiment: FACS, CHOK1-h4-1BB cells; Ab 0.016 ug/ml
Excerpt: as §1

[10] = target: T1, human 4-1BB, full length, on …; experiment: FACS, CHOK1-h4-1BB cells; Ab 0.08 ug/ml
Excerpt: as §1

[11] = target: T2, hFc-tagged human 4-1BB extracellular …; experiment: ELISA, coated human 4-1BB-hFc; Ab 0.0032 ug/ml
Procedure: as §2

[12] = target: T2, hFc-tagged human 4-1BB extracellular …; experiment: ELISA: human 4-1BB-hFc coated at 1.0 µg/mL, antibody titrated, HRP secondary antibody, OD450
Procedure: as §2

[13] = target: T3, monkey 4-1BB on CHOK1 cells; experiment: FACS, CHOK1-c4-1BB cells; Ab 0.00064 ug/ml
Excerpt: as §1

T1 sequence (Q07011 24-255): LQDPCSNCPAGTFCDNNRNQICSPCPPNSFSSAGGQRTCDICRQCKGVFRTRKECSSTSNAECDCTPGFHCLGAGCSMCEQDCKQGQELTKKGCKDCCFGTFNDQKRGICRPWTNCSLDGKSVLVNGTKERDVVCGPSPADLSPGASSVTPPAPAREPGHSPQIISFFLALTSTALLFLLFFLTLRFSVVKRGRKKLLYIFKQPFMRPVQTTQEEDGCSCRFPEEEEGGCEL

Binder	average fluorescence intensity [1] [MFI]	average fluorescence intensity [2] [MFI]	OD450 nm [3] [OD450 nm]	average fluorescence intensity [4] [MFI]	OD450 nm [5] [OD450 nm]	OD450 nm [6] [OD450 nm]	OD450 nm [7] [OD450 nm]	average fluorescence intensity [8] [MFI]	average fluorescence intensity [9] [MFI]	average fluorescence intensity [10] [MFI]	OD450 nm [11] [OD450 nm]	EC50 (read off the curve) [12] [µg/mL]	average fluorescence intensity [13] [MFI]
119B6G5 (antibody, V domains shown) VH: EVQLLESGGGLVQPGGSLRLSCAASGFTFSNYAMSWVRQGPGKGLEWVSTIIGSGDSTYYTDSVKGRFTISRDNSKNTLFLQMNSLRAEDTAVYYCARDKSGWYYFDYWGQGTLVTVSS VL: DIQMTQSPSTLSASVGDRVTITCRASQSISNWLAWYQQKPGKAPKLLIYKASSLESGVPSRFSGSGSGTEFTLTISSLQPDDFATYYCQQYNDYFPITFGQGTRLEIK	2.6	636	2.76	1470	2.77	0.07	2.62	5.1	49.1	199	0.33	~0.02	6.6
23G3B8 (antibody, V domains shown) VH: QVQLQESGPGLVKPSETLSLTCAVSAYSISSGYYWGWIRQPPGKGLEWIGSIFHSGSNYYNPSLKSRVTISVDPSKNQFSLKLSSVTVADTAVYYCARESSGYNCFDYWGQGTLVTVSS VL: not shown	4.6	541	2.78	595	2.77	0.07	2.53	11.2	126	399	0.28	~0.02	4.7
172E3E3 (antibody, V domains shown) VH: QVQLQESGPGLVKPSGTLSLTCAVSGGSISSSNWWSWVRQPPGKGLEWIGEIYHSGSTNYNPSLKSRVTISVDKSKNQLSLNLSSVTAADTAVYYCARQGGVAGTLYWYFDLWGRGTLVTVSS VL: DIVMTQSPLSLPVTPGEPASISCRSSQGLLHSNGYNYLDWYLQKPGQSPQLLIYLGSNRASGVPDRFIGSGSGTDFTLKIRRVEAEDVGVYYCMQVLQTPWTFGQGTKVEIK	13.8	413	3.44	342	3.44	0.14	3.18	49.5	46.9	172	0.51	~0.02	71.7
258F5A8 (antibody, V domains shown) VH: QVQLVESGGGVVQPGRSLRLSCAASGFTFSSYGMHWVRQAPGKGLEWVAVIWYDGSNKYYADSVKGRFNISRDNSKNTLYLQMNSLRAEDTAVYYCARGPYLYSSGWYDYYYYGMDVWGQGTTVTVSS VL: not shown	4.1	591	2.67	131	2.69	0.06	2.47	7	68	252	0.26	~0.02	3
259G10E11 (antibody, V domains shown) VH: QVQLVESGGGVVQPGRSLRLSCAASGFTFSSYGMHWVRQAPGKGLEWVAVIWYDGSNKYYADSVKGRFTISRDNSKNTLYLQMNSLRAEDTAVYYCARGPYLYSSGWYDYYYYGMDVWGQGTTVTVSS VL: not shown	3.9	625	2.8	126	2.79	0.07	2.64	7.1	67.2	252	0.33	~0.02	2.9
11H10C9 (antibody, V domains shown) VH: QVQLVESGGGVVQPGRSLRLSCAASGFTFSSYAMHWVRQAPGKGLEWVAIIWYDGSNQYYADSVKGRFTISRDNSMNTLYLQMNSLRAEDTAVYYCARVEQWLVSYFDFWGQGTLVTVSS VL: EIVMTQSPATLSVSPGERATLSCRASQSVSSNLAWYQQKPGQVPRLLIYGASTRATGIPARFSGSGSGTEFTLTISSLQSEDFAVYYCQQYNNWPTFGGGTKVEIK	3.5	431	3.59	736	3.58	0.15	3.27	6.4	58.7	200	0.49	~0.02	3.7
263A11E3 (antibody, V domains shown) VH: QVQLQESGPGLVKPSETLSLTCAVSGYSISSGYYWGWIRQPPGKGLEWIGSIYHSGSTSYNPSLRSRVTISVDTSKNQFSLKLSSVTAADTAVYYCARDAGGFDYWGQGTLVTVSS VL: not shown	4	1120	2.74	124	2.75	0.07	2.59	8	85.6	356	0.3	~0.02	2.8
